Experimental data published in the supplement of paper PMC12042874.
± gives the uncertainty stated by the source.

experiment: amyloid nucleation score (Sup35N fusion, yeast selection) (log enrichment); library NNK1; higher = more nucleation; inactive = no reads after selection
How it was run: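 Output and input plasmid inserts were sequenced by Illumina after psi-negative yeast carrying Sup35N fused to peptides of 20 random codons had been induced 24 hours with 100 μM copper sulfate and grown 7 days at 30°C on medium lacking adenine and uracil. The nucleation score is the DiMSum log enrichment of output over input reads, centred on the mode score of non-aggregating sequences. Sequences with under 100 input reads were excluded.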

Row | Substance | amyloid nucleation score
1 | VHLTSPYHCRVPDMNSCYGS | 0.371 ± 0.91
2 | IFGCRLLYCS | 0.402 ± 1.4
3 | WGMWSGLLFGEFWCS | -0.424 ± 0.71
4 | HYIFIRECYCIYLSIAFSQT | 0.33 ± 0.36
5 | CIDFKSSGAGSTMSWNLVFN | -0.188 ± 0.48
6 | PYKTWRYSSRIFYWAALPMV | -0.842 ± 1.7
7 | NFELEHLEICSDVCFGCAAE | 1.12 ± 0.65
8 | VPSLSPFGRKMFHIRSL | inactive
9 | VQCVHLSNME | 0.105 ± 0.72
10 | VLSPKSNIGDMSLIFMNTAA | 0.54 ± 0.79
11 | FDHSIVKKSQLRGFTVVLRL | 1.22 ± 0.35
12 | TPFRDKHGGVWVV | 0.505 ± 0.56
13 | YQVMLRSCLYLLYFSMFNCL | 1.27 ± 0.79
14 | LSMPMGNLEPL | -0.277 ± 0.19
15 | CRDRRS | 1.91 ± 0.35
16 | VKVVALRIWRSEDLVVRFWG | 0.562 ± 0.78
17 | KPRVRAAGLCSLQFWALIAV | -0.275 ± 0.72
18 | HSGMRVPSMAYLVL | -0.259 ± 0.7
19 | NGWTFYCSCSWCGI | 8.306 ± 0.049
20 | WAHGLLFSYDSLHWYYICKV | 0.304 ± 0.44
21 | SNQRKYGAPVKSLWEIFKSE | 1.34 ± 0.93
22 | CDWYDQMREVGESYVALSYN | -0.386 ± 0.48

Row | Substance | amyloid nucleation score
23 | PFYSETDDSRYIDVRRVFCF | inactive
24 | ALAWWVLFL | 0.132 ± 1
25 | AIYMLHRNGGGGVCEAEAVR | -0.38 ± 0.69
26 | TSGFLPLKTKMF | 0.252 ± 0.8
27 | LNDNLGSMFSL | -0.772 ± 0.64
28 | VRAPRSVWRSFAAA | -0.107 ± 0.59
29 | VFGLAV | -0.912 ± 1.1
30 | YDPPNCSAKSNQAGLKCTGA | 2.22 ± 0.19
31 | LNDPMAGRLNNVRSGCLDDV | -0.059 ± 0.43
32 | VCRQMYVLDCYS | inactive
33 | VCGGETLPRVVSNGGRSPRV | 0.602 ± 0.35
34 | VKQTGLVARMRWVTGLARDG | -0.921 ± 1.3
35 | YWVWYDVYGSWLGSWYYKRG | 0.278 ± 0.52
36 | LSMNICSLNSSRYKPP | 2.79 ± 0.098
37 | CPGFFILVQCIVYMDTDCGF | 3.81 ± 0.095
38 | TGMWPFNRRCITIRTVSRNL | 0.467 ± 0.93
39 | IGTGCSDILRIWRECVNLRG | 1.5 ± 0.56
40 | LYHGVYPKFLYKLVVESSLS | -1.79 ± 1.7
41 | SCKVVILLPSVVKACLTVLP | 0.474 ± 0.95
42 | CVFYISINCYFIWVRLDWVY | inactive
43 | YLYVGS | -0.352 ± 0.37
44 | CQYMFHIWQLIANHVI | 0.799 ± 0.43

Row | Substance | amyloid nucleation score
45 | YSTRPKVPFVRKVFIIGL | 0.174 ± 0.43
46 | VQRELFLVLHHTSVGRGSAP | 1.08 ± 0.24
47 | LRRFLPMALDDED | -0.676 ± 1.4
48 | NIGNVMRSCSKVYSLSLKQL | 0.585 ± 0.31
49 | KTANGNCHENSQSDVFKSVS | 0.346 ± 0.31
50 | VMTWHL | -0.73 ± 0.45
51 | IGWFHHFHHATLHRAISVFL | 0.633 ± 0.42
52 | CGFSDNGTCKND | -0.059 ± 0.28
53 | KSCAHSYEFHHCNCAVVFTL | 6.6 ± 0.051
54 | TLLMRSEGYLFYYAPSLSLV | -0.494 ± 0.44
55 | DNRLMHIIDMWCRSYFSGHT | -0.063 ± 1.4
56 | CPWRNRII | 0.684 ± 0.6
57 | FVTKGVERCRVPEVSLPCLI | -0.839 ± 1.2
58 | NSSMVG | -1.16 ± 1.7
59 | KRARGDFYILEWQSDLDNLG | -0.755 ± 0.67
60 | SLIFCSYSNDLFHSWNHKFR | -0.068 ± 0.7
61 | YSAVISHDVGLFVYLTETET | -0.363 ± 0.56
62 | QNIYFFKCAKHSKVNRSDMS | 1.91 ± 0.55
63 | WSTCLCGYCCVI | 1.31 ± 0.2
64 | APMYDDLDATMVELEGP | 0.254 ± 1.2
65 | LFRRRKITTVYIDKNAMLTS | inactive
66 | RLFWLRNLPLWASYK | 0.07 ± 0.47

Row | Substance | amyloid nucleation score
67 | EWSFSYCGGVAFLSIEIEFL | inactive
68 | FNVISVWSPWQW | 6.3 ± 0.064
69 | STFSLTSRASHKVPQDRYFP | 0.353 ± 0.61
70 | LLYSMDRQVLMSAISLLSIT | 0.903 ± 0.63
71 | VLPRVWCCNADNDSIVDFRG | 2.35 ± 0.097
72 | YVYDSVAVHGGKTLEGEGYG | 0.035 ± 0.38
73 | LWTLVQTASSTWALLTGTTN | -0.066 ± 0.65
74 | GTGCFRCTVSTVGSVFIRDE | -0.27 ± 0.64
75 | RVIWEGNAVQTSAWGSADPK | -0.264 ± 0.64
76 | VHFRYNIVTVSPQVIKFFST | 5.36 ± 0.071
77 | TWPVLSDGQAGELRVRMGSA | 0.741 ± 0.88
78 | CVPPRVRCRFEL | 0.792 ± 0.46
79 | SPEGWYFRTTWLVA | inactive
80 | DGFCCGIYYILSEMTGHSRS | 1.41 ± 0.65
81 | YPAVNRWSLAVFSVRVRLAG | -0.046 ± 0.38
82 | QFTRLCMLRNTLFTVVENQA | 0.383 ± 0.65
83 | KCGGKRCWLSFCLDAD | 1.48 ± 0.33
84 | FCCGSGNSMDMCWFLSIG | 6.93 ± 0.079
85 | RFYIGIVIQRTYGRC | 2.79 ± 0.071
86 | LCVFVKAGVCWGRTVIRKSG | inactive
